From patent publication US20120079614A1 (ROYAL INSTITUTION FOR THE ADVANCEMENT OF LEARNING MCGILL …, published 2012)

T1: soluble CD109 protein (full-length recombinant CD109) (human, UniProt Q6YHK3 22-1420, limits assumed)
T1 construct: also called FL CD109; CD109 soluble full-length protein
T1 sequence: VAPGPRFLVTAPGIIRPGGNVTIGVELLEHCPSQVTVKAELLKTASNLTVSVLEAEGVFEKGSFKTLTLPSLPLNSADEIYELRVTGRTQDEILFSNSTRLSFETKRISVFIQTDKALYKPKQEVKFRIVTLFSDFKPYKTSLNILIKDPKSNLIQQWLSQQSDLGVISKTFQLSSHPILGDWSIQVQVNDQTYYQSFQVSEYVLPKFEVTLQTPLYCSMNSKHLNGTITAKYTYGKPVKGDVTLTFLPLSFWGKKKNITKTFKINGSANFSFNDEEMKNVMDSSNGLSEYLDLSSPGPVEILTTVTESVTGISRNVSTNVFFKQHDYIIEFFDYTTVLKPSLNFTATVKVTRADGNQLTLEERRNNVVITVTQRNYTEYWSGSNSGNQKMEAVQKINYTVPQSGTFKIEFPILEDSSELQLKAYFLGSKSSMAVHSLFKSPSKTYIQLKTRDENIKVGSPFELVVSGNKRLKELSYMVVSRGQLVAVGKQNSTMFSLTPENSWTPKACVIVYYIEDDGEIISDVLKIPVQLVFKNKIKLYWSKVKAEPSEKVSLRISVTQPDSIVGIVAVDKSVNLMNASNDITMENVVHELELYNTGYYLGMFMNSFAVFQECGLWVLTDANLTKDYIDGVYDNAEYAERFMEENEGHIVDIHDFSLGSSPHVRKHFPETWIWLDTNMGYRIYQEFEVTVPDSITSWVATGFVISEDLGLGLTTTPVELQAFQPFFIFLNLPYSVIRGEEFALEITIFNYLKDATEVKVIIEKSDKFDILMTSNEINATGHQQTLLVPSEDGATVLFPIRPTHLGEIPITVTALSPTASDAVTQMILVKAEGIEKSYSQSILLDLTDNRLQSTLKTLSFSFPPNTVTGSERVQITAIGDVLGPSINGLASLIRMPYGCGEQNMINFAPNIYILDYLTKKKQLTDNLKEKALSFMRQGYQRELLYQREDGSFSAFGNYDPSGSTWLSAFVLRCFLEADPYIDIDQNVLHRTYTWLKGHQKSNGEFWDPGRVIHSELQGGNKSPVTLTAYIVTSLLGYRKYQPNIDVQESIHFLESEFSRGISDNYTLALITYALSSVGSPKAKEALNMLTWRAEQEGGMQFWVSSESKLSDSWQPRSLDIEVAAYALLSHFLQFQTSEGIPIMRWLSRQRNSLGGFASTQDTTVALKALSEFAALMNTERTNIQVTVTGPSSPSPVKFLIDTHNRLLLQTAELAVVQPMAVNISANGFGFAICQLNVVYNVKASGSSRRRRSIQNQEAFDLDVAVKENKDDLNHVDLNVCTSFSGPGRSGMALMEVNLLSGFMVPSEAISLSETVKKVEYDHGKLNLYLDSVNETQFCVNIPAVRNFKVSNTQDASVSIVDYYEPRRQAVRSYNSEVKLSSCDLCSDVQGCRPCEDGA

B1: TGF-β2 (ligand, UniProt P61812 303-414, looked up)
chain: ALDAAYCFRNVQDNCCLRPLYIDFKRDLGWKWIHEPKGYNANFCAGACPYLWSSDTQHSRVLSLYNTINPEASASPCCVSQDLEPLTILYYIGKTPKIEQLSNMIVKSCKCS
B2: CD109 Peptide A (CD109 amino acids 606-766) (peptide)
chain: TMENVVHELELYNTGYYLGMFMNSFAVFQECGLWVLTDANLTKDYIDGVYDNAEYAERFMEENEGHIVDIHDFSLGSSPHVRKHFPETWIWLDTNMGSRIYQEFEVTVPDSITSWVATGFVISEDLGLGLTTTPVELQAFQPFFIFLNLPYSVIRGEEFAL
notes: also called CD109-based peptide

Experiments:
[1] = target: T1, soluble CD109 protein (full-length …); test: SPR, BIACORE 3000; CD109 amine-coupled on CM5 chip, TGF-β as analyte
Experimental: (§1) Surface plasmon resonance assay: CD109 protein and peptides were tested for their ability to bind TGF-β using surface plasmon resonance. CD109 protein and peptides were amine-coupled onto a gold-dextran CM5 sensor chip as the ligands and TGF-β1/2/3 in HBS-ET buffer as the analytes were pumped across the CD109 amine-coupled sensor chip and binding response was measured using BIACORE 3000™ SPR detection system.

[2] = target: T2, Transforming Growth Factor-β1 (TGF-β1) (UniProt P01137 279-390, 125I label in the affinity labeling assays); test: SPR, BIACORE 3000; Peptide A amine-coupled on CM5 chip, TGF-β1 as analyte
T2 construct: The background describes TGF-β as a 25 kDa growth factor; also called I125TGF-β1
T2 sequence (P01137 279-390 limits assumed): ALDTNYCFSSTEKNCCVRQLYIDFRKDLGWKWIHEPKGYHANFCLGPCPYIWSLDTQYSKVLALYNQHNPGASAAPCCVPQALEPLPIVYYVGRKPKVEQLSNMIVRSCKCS
Experimental: as §1

Row | Binder | Kd [1] [nM] | Kd [2] [nM]
1 | B1 | 1 | –
2 | B2 | – | 10
